Percentage of floating PC-3 cells that were dead, with Leu^60-IGF-I and percentage of floating PC-3 cells that were dead, without Leu^60-IGF-I data for one substance are collected here from patent US20040253689A1.

Holding throughout (test): cell-based or functional assay
The target in assay [1] is wild-type CHO-hIGFBP-3 (6xHis/Xpress/enterokinase-tagged mature human IGFBP-3 expressed in CHO-K1 cells from pRSV-Sec-BP3) (human) (UniProt P17936).
For assay [2], the target named is recombinant hIGFBP-3 standard (R&D Systems; synthesized in NSO mouse myeloma cells) (human) (UniProt P17936).
Assay [3] has as its target 6m-hIGFBP-3 (I56A, Y57A, R75A, L77A, L80A, L81A mutant CHO-hIGFBP-3) (human) (UniProt P17936).

wild-type CHO-hIGFBP-3 (6xHis/Xpress/enterokinase-tagged mature human IGFBP-3 expressed in CHO-K1 cells from pRSV-Sec-BP3) (human), sequence (P17936 other isoform, or with tags, fused parts or gaps limits assumed): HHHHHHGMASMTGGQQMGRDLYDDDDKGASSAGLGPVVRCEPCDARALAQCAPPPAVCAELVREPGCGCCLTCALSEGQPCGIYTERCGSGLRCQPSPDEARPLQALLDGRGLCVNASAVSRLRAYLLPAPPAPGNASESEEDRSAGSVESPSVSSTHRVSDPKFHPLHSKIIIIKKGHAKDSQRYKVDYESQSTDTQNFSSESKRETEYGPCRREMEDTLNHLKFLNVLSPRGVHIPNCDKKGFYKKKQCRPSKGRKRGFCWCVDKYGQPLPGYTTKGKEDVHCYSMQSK
recombinant hIGFBP-3 standard (R&D Systems; synthesized in NSO mouse myeloma cells) (human), sequence (P17936 28-291 limits assumed): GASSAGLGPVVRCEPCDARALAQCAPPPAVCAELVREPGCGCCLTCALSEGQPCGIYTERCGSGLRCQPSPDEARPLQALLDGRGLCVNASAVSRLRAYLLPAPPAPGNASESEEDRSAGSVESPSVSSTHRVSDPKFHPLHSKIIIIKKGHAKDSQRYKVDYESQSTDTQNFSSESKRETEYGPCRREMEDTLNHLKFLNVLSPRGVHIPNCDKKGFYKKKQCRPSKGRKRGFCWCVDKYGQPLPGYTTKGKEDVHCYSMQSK
6m-hIGFBP-3 (I56A, Y57A, R75A, L77A, L80A, L81A mutant CHO-hIGFBP-3) (human), sequence (P17936 other isoform, or with tags, fused parts or gaps I56A Y57A R75A L77A L80A L81A I56A Y57A R75A L77A L80A L81A): as the sequence (P17936 other isoform, or with tags, fused parts or gaps limits assumed) above, with I83A, Y84A, R102A, L104A, L107A, L108A counted along it

In the case of “Leu^60-IGF-I (IGF-I analogue in which leucine is substituted for tyrosine at position 60; expressed in Escherichia coli) (from UniProt P05019 49-118) (ligand)”, the percentage of floating PC-3 cells that were dead, with Leu^60-IGF-I was found to be 14% in assay [1], 14% in assay [2] and 80% in assay [3]. In addition, the percentage of floating PC-3 cells that were dead, without Leu^60-IGF-I in assay [1] turned out to be 82%; in assay [2], 82%; in assay [3], 86%.
